Measurements taken from article PMC10397247.
Blank lines part the entries; values can stand above or below the binder they belong to.

Legend:
4H949-bA = target: T1, 4H949-bA; experiment: two-hybrid library CCNG1;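 also: natural log of median RNA to DNA barcode read ratio; higher means stronger binding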
T1 chain: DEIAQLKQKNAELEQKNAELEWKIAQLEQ

4H3381-bA = target: T2, 4H3381-bA; experiment: two-hybrid library CCNG1;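 also: natural log of median RNA to DNA barcode read ratio; higher means stronger binding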
T2 chain: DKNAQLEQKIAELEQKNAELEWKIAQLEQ

4H796-bA = target: T3, 4H796-bA; experiment: two-hybrid library CCNG1;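 also: natural log of median RNA to DNA barcode read ratio; higher means stronger binding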
T3 chain: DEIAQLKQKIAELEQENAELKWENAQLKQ

4H2760-bA = target: T4, 4H2760-bA; experiment: two-hybrid library CCNG1;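 also: natural log of median RNA to DNA barcode read ratio; higher means stronger binding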
T4 chain: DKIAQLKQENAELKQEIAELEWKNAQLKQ

4H3041-bA = target: T5, 4H3041-bA; experiment: two-hybrid library CCNG1;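 also: natural log of median RNA to DNA barcode read ratio; higher means stronger binding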
T5 chain: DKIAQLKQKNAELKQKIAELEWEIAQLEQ

4H3364-bA = target: T6, 4H3364-bA; experiment: two-hybrid library CCNG1;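 also: natural log of median RNA to DNA barcode read ratio; higher means stronger binding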
T6 chain: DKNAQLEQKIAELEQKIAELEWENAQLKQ

4H56-bA = target: T7, 4H56-bA; experiment: two-hybrid library CCNG1
T7 chain: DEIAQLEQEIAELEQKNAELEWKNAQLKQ

P4A = target: T8, P4A; experiment: two-hybrid library CCNG1
T8 chain: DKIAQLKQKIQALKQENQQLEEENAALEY

4H932-bA = target: T9, 4H932-bA; experiment: two-hybrid library CCNG1
T9 chain: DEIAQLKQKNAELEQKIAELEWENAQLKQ

4H2859-bA = target: T10, 4H2859-bA; experiment: two-hybrid library CCNG1
T10 chain: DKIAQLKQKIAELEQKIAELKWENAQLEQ

4H2931-bA = target: T11, 4H2931-bA; experiment: two-hybrid library CCNG1
T11 chain: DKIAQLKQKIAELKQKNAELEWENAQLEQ

4H349-bA = target: T12, 4H349-bA; experiment: two-hybrid library CCNG1
T12 chain: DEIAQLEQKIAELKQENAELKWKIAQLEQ

4H2518-bA = target: T13, 4H2518-bA; experiment: two-hybrid library CCNG1
T13 chain: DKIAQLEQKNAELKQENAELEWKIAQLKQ

O8-bN = target: T14, O8-bN; experiment: two-hybrid library CCNG1
T14 chain: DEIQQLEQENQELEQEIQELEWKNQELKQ

4H3297-bA = target: T15, 4H3297-bA; experiment: two-hybrid library CCNG1
T15 chain: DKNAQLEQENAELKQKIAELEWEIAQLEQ

4H730-bA = target: T16, 4H730-bA; experiment: two-hybrid library CCNG1
T16 chain: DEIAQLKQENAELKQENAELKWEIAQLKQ

4H2585-bA = target: T17, 4H2585-bA; experiment: two-hybrid library CCNG1
T17 chain: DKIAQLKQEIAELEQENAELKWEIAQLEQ

4H264-bA = target: T18, 4H264-bA; experiment: two-hybrid library CCNG1
T18 chain: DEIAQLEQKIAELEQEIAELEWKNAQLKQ

4H2839-bN = target: T19, 4H2839-bN; experiment: two-hybrid library CCNG1
T19 chain: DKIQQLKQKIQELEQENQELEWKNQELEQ

4H348-bN = target: T20, 4H348-bN; experiment: two-hybrid library CCNG1
T20 chain: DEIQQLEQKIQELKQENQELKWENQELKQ

4H3057-bN = target: T21, 4H3057-bN; experiment: two-hybrid library CCNG1
T21 chain: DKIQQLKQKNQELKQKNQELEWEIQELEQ

4H2503-bN = target: T22, 4H2503-bN; experiment: two-hybrid library CCNG1
T22 chain: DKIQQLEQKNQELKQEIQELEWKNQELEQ

4H319-bN = target: T23, 4H319-bN; experiment: two-hybrid library CCNG1
T23 chain: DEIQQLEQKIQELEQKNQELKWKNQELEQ

4H3277-bN = target: T24, 4H3277-bN; experiment: two-hybrid library CCNG1
T24 chain: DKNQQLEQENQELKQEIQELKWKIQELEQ

4H2717-bN = target: T25, 4H2717-bN; experiment: two-hybrid library CCNG1
T25 chain: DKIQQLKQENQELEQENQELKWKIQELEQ

4H492-bN = target: T26, 4H492-bN; experiment: two-hybrid library CCNG1
T26 chain: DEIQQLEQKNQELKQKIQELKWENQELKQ

4H741-bN = target: T27, 4H741-bN; experiment: two-hybrid library CCNG1
T27 chain: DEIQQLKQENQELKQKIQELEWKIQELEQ

4H2915-bN = target: T28, 4H2915-bN; experiment: two-hybrid library CCNG1
T28 chain: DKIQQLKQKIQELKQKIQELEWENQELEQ

4H2588-bN = target: T29, 4H2588-bN; experiment: two-hybrid library CCNG1
T29 chain: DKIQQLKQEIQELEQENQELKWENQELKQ

4H2692-bN = target: T30, 4H2692-bN; experiment: two-hybrid library CCNG1
T30 chain: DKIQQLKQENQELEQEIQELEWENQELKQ

4H40-bN = target: T31, 4H40-bN; experiment: two-hybrid library CCNG1
T31 chain: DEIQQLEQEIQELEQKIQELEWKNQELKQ

O4-bS = target: T32, O4-bS; experiment: two-hybrid library CCNG1
T32 chain: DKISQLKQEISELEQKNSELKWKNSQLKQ

4H477-bN = target: T33, 4H477-bN; experiment: two-hybrid library CCNG1
T33 chain: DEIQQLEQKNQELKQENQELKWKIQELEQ

4H968-bH = target: T34, 4H968-bH; experiment: two-hybrid library CCNG1
T34 chain: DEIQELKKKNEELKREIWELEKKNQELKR

4H855-bH = target: T35, 4H855-bH; experiment: two-hybrid library CCNG1
T35 chain: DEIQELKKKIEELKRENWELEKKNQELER

4H953-bH = target: T36, 4H953-bH; experiment: two-hybrid library CCNG1
T36 chain: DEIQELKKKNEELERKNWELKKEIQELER

P4A-bN = target: T37, P4A-bN; experiment: two-hybrid library CCNG1
T37 chain: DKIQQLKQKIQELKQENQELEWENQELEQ

4H918-bH = target: T38, 4H918-bH; experiment: two-hybrid library CCNG1
T38 chain: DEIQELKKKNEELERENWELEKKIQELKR

4H2444-bA = target: T39, 4H2444-bA; experiment: two-hybrid library CCNG1
T39 chain: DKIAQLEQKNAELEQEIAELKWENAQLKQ

4H492-bA = target: T40, 4H492-bA; experiment: two-hybrid library CCNG1
T40 chain: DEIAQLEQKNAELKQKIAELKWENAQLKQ

P7A-bN = target: T41, P7A-bN; experiment: two-hybrid library CCNG1
T41 chain: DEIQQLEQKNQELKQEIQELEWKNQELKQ

P8A-bN = target: T42, P8A-bN; experiment: two-hybrid library CCNG1
T42 chain: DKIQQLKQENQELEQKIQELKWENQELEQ

P9A-bN = target: T43, P9A-bN; experiment: two-hybrid library CCNG1
T43 chain: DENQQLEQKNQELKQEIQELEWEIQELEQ

P6A-bN = target: T44, P6A-bN; experiment: two-hybrid library CCNG1
T44 chain: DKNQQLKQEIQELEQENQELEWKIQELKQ

4H2608-AA = target: T45, 4H2608-AA; experiment: two-hybrid library CCmax; details: mean of both orientations
T45 chain: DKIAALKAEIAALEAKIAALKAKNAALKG

4H662-AA = target: T46, 4H662-AA; experiment: two-hybrid library CCmax; details: mean of both orientations
T46 chain: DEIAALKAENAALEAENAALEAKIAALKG

4H4033-AA = target: T47, 4H4033-AA; experiment: two-hybrid library CCmax; details: mean of both orientations
T47 chain: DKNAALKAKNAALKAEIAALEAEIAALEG

4H3625-AA = target: T48, 4H3625-AA; experiment: two-hybrid library CCmax; details: mean of both orientations
T48 chain: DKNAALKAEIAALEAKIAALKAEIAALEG

4H2614-AA = target: T49, 4H2614-AA; experiment: two-hybrid library CCmax; details: mean of both orientations
T49 chain: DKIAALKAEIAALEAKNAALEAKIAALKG

4H2238-AA = target: T50, 4H2238-AA; experiment: two-hybrid library CCmax
T50 chain: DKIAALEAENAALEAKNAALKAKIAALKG

4H2536-AA = target: T51, 4H2536-AA; experiment: two-hybrid library CCmax; details: mean of both orientations
T51 chain: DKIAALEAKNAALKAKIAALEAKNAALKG

4H2935-AA = target: T52, 4H2935-AA; experiment: two-hybrid library CCmax; details: mean of both orientations
T52 chain: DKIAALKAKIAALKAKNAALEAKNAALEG

4H369-AA = target: T53, 4H369-AA; experiment: two-hybrid library CCmax; details: mean of both orientations
T53 chain: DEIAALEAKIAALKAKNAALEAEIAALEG

4H3664-AA = target: T54, 4H3664-AA; experiment: two-hybrid library CCmax; details: mean of both orientations
T54 chain: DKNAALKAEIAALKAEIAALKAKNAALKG

4H55-AA = target: T55, 4H55-AA; experiment: two-hybrid library CCmax; details: mean of both orientations
T55 chain: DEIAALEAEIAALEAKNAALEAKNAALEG

4H3605-AA = target: T56, 4H3605-AA; experiment: two-hybrid library CCmax; details: mean of both orientations
T56 chain: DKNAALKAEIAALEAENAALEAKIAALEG

4H2726-AA = target: T57, 4H2726-AA; experiment: two-hybrid library CCmax; details: mean of both orientations
T57 chain: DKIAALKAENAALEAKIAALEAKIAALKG

4H481-AA = target: T58, 4H481-AA; experiment: two-hybrid library CCmax; details: mean of both orientations
T58 chain: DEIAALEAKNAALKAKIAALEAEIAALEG

4H2513-AA = target: T59, 4H2513-AA; experiment: two-hybrid library CCmax; details: mean of both orientations
T59 chain: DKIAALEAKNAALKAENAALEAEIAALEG

4H327-AA = target: T60, 4H327-AA; experiment: two-hybrid library CCmax; details: mean of both orientations
T60 chain: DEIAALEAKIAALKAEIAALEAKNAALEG

4H3922-AA = target: T61, 4H3922-AA; experiment: two-hybrid library CCmax; details: mean of both orientations
T61 chain: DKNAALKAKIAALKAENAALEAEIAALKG

Binder: DEIQELKKKIEELKRENWELEKKNQELER [4H855-bH]
interaction score (4H968-bH): 0.133
interaction score (4H855-bH): -0.389
interaction score (4H953-bH): -1.14
interaction score (P4A-bN): -0.185
interaction score (4H918-bH): -0.637

Binder: DKIAQLEQKNAELEQEIAELKWENAQLKQ [4H2444-bA]
interaction score (4H949-bA): -0.993
interaction score (4H3381-bA): -0.537
interaction score (4H2444-bA): 1.3
interaction score (4H796-bA): -0.412
interaction score (4H2760-bA): 1.15
interaction score (4H3041-bA): 0.922
interaction score (4H3364-bA): -0.57
interaction score (4H56-bA): -1.91
interaction score (4H932-bA): -1.36
interaction score (4H2859-bA): -0.0526
interaction score (4H2931-bA): 0.114
interaction score (4H349-bA): -0.457
interaction score (4H492-bA): 1.66
interaction score (4H2518-bA): -0.678
interaction score (4H3297-bA): 0.252
interaction score (4H730-bA): -0.297
interaction score (4H2585-bA): 0.675
interaction score (4H264-bA): 0.179

Binder: DKIQQLKQKIQELKQENQELEWENQELEQ [P4A-bN]
interaction score (P7A-bN): -1.45
interaction score (P8A-bN): -0.841
interaction score (P9A-bN): -0.681
interaction score (P4A-bN): -1.26
interaction score (P6A-bN): -1.54

Binder: DKIAALEAENAALEAKNAALKAKIAALKG [4H2238-AA]
interaction score (4H2608-AA): -1.6
interaction score (4H662-AA): 1.18
interaction score (4H4033-AA): 1.31
interaction score (4H3625-AA): -1.18
interaction score (4H2614-AA): -1.25
interaction score (4H2238-AA): -0.902
interaction score (4H2536-AA): -1.01
interaction score (4H2935-AA): -1.18
interaction score (4H369-AA): 2.28
interaction score (4H3664-AA): -1.15
interaction score (4H55-AA): -1.77
interaction score (4H3605-AA): -0.657
interaction score (4H2726-AA): -0.445
interaction score (4H481-AA): 1.84
interaction score (4H2513-AA): 2.15
interaction score (4H327-AA): -0.966
interaction score (4H3922-AA): 1.59

Now from value to binder:

interaction score (4H949-bA): -0.976
interaction score (4H3381-bA): -0.773
interaction score (4H796-bA): -1.33
interaction score (4H2760-bA): -0.635
interaction score (4H3041-bA): 0.486
interaction score (4H3364-bA): -0.361
interaction score (4H56-bA): -1.52
interaction score (P4A): -1.32
interaction score (4H932-bA): -1.08
interaction score (4H2859-bA): -0.00645
interaction score (4H2931-bA): -0.288
interaction score (4H349-bA): -0.372
interaction score (4H2518-bA): 0.343
interaction score (O8-bN): -2.05
interaction score (4H3297-bA): -0.628
interaction score (4H730-bA): -0.626
interaction score (4H2585-bA): -0.589
interaction score (4H264-bA): -1
Binder: DKIAQLEQKNAELKQENAELEWKIAQLKQ [4H2518-bA]

interaction score (4H2839-bN): -0.436
interaction score (4H348-bN): 0.419
interaction score (4H3057-bN): -0.657
interaction score (4H2503-bN): -0.645
interaction score (4H319-bN): -0.708
interaction score (4H3277-bN): 0.0524
interaction score (4H2717-bN): -1.42
interaction score (4H492-bN): 0.186
interaction score (4H741-bN): -0.327
interaction score (4H2915-bN): -0.299
interaction score (4H2588-bN): 0.453
interaction score (4H2692-bN): -2.06
interaction score (4H40-bN): -0.263
interaction score (O4-bS): -1.2
interaction score (4H477-bN): -0.639
Binder: DKIQQLEQKNQELKQEIQELEWKNQELEQ [4H2503-bN]
